Legend:
[1] = target: T1, human CD3 on CD3-expressing cells (Jurkat, human T cells) (human, UniProt P07766 23-207; P04234 22-171); experiment: FACS titration of Jurkat cells
T1 construct: On cells CD3 stands within the T cell receptor complex (also gamma and zeta chains); also called human CD3 expressing Jurkat cells

[2] = target: T2, cynomolgus CD3 on cynomolgus T cells (cynomolgus, UniProt Q95LI5 22-198; Q95LI8 22-171); experiment: FACS titration of cynomolgus T cells
T2 construct: whole, on cells; also called Cyno T-cells; monkey T-cells

[3] = target: T3, human PSMA on PSMA-expressing cells (human, UniProt Q04609 1-750); experiment: FACS on 22RV1 cells
T3 construct: Cell line is named under assay or readout in each row; also called B16F10.9/hPSMA; B16F10.9/PSMA
Procedure: Briefly, 2×10⁵ cells/well of human CD3-expressing Jurkat, cynomolgus T, or human PSMA-specific expressing cells were incubated with a serial dilution of bispecific antibodies for 30 min at 4° C. After incubation, cells were washed and a goat F(ab′)₂ anti-human Fcγ PE labeled secondary (Jackson Immunolabs) was added to the cells for an additional 30 min. Next, cells were washed, re-suspended in cold PBS+1% BSA and analyzed via flow cytometry on a BD FACS Canto II.
For FACS analysis, cells were gated by forward scatter height vs. forward scatter area for single events selection, followed by side and forward scatters. The EC₅₀ for cell binding titration was determined using Prism software. Values were calculated using 4-parameter non-linear regression analysis.

[4] = target: T1, human CD3 on CD3-expressing cells …; experiment: FACS on Jurkat cells
How it was run: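 Jurkat (human CD3), cynomolgus T or PSMA-expressing cells (2×10⁵/well) incubated 30 min at 4° C with serially diluted bispecific antibodies, then 30 min with PE anti-human Fcγ F(ab′)₂. Single-cell gated flow cytometry; EC₅₀ from 4-parameter non-linear regression.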

T1 sequence (P07766 23-207 limits assumed, chain 1 of 2): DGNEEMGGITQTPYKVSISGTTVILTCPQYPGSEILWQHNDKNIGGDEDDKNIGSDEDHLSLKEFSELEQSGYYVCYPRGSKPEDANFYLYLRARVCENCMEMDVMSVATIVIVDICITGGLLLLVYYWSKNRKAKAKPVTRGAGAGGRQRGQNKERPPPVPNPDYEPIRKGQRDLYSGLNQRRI
T1 sequence (P04234 22-171 limits assumed, chain 2 of 2): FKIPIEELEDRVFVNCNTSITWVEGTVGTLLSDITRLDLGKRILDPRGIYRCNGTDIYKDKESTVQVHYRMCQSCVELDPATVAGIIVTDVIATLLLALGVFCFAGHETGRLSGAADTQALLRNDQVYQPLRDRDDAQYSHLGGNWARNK
T3 sequence (Q04609 whole entry): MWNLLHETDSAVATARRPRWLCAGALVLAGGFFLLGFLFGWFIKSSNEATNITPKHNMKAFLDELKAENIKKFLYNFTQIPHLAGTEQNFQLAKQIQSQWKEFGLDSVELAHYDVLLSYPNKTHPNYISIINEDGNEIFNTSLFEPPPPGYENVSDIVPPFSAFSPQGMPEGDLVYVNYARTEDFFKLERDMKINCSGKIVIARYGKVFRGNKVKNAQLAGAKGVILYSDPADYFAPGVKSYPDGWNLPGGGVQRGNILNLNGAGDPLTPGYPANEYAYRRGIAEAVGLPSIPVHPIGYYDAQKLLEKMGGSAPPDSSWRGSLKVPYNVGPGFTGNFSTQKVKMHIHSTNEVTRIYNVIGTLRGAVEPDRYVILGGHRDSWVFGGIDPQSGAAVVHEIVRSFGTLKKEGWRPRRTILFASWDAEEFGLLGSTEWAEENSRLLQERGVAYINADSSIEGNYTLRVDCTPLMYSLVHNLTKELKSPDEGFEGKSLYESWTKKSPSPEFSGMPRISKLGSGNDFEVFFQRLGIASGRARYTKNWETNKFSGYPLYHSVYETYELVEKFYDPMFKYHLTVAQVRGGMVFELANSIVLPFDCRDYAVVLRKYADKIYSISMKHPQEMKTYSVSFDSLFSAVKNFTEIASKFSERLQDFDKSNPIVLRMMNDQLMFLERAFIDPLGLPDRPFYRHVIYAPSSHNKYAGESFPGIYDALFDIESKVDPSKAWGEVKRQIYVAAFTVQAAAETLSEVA
T2 sequence (Q95LI5 22-198, form in doubt, chain 1 of 2): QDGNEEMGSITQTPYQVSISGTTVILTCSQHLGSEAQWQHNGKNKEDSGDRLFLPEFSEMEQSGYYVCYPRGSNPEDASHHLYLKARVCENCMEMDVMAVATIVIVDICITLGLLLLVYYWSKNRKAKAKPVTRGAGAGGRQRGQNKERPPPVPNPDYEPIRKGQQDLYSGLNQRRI
T2 sequence (Q95LI8 22-171, form in doubt, chain 2 of 2): as the sequence (P04234 22-171 limits assumed, chain 2 of 2) above, with I5V, N15K, I20V, S32T, D33N, I34N, T64A, S74N, V83L, H141R counted along it

Row | Binder | EC50 [1] [nM] | EC50 [2] [nM] | EC50 [3] [nM] | EC50 [4] [nM]
1 | CD3-VH-P (antibody, V domains shown, also called CD3 antibody designated CD3-VH-P) VH: EVQLVESGGGLVQPGRSLRLSCVASGFTFDDYSMHWVRQAPGKGLEWVSGISWNSGSKDYADSVKGRFTISRDNAKNSLYLQMNSLRAEDTALYYCAKYGSGYGKFYHYGLDVWGQGTTVTVSS VL: DIQMTQSPSSLSASVGDSVTITCRASQSINNYLNWYQQKPGKAPKLLIYTASSLLSGVPSRFSGSGSGTDFTLTISGLHPEDFATYFCQQSFSTPPITFGQGTRLDIK | 1 to 40 | 1 to 40 | – | –
2 | BSPSMA/CD3-001 (bispecific antibody, IgG4, V domains shown, modified (chimeric) IgG4 Fc domain as in US20140243504A1; also called PSMA-VH-3465 x CD3-VH-A, CD3-VL-A) VH 1: QVQLVESGGGVVQPGRSLRLSCAASGFTFITYGMHWVRQAPGKGLEWVAIIYYDESNKYYADSVKGRFTISRDISKNTLYLQMNGLRAEDTAVYYCARAPRVAVEEDYSYYYGMDVWGQGTTVTVSS VH 2: EVQLVESGGGLVQPGRSLRLSCVASGFTFADFTMHWVRQAPGKGLEWVSGISWNSNSIDYADSVKGRFTISRDNAKKSLFLQMSSLRAEDTALYYCVKDRSGYSRFYYGMDVWGQGTTVTVSS VL: EIVMTQSPATLSVSPGERAILSCRASQNINSNLAWYQQKPGQAPRLLIYGASTRATGVPARFSGSGSGTEFTLTIRSLQSEDFAVYYCQQYYNWPITFGHGTRLEIK | – | – | 78.5 | 39.1
